The record followed here is publication PMC13436963.

The target in test [1] is EGFP-tagged full-length Drosophila Notch [Drosophila melanogaster]. Nature of the test: luciferase-coupled co-immunoprecipitation (GFP-trap). The note with it: S2 cells, Notch-GFP WT, n=4, parent: 1, read off a plot.
Test [2] addresses T1, Drosophila Notch LNR domain F1563A fused to split firefly luciferase fragments, P07207.
T1 chain: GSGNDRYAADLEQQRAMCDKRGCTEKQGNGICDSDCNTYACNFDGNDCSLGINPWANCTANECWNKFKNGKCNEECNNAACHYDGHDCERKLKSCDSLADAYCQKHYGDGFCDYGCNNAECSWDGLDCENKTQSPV
Nature of the test: split-luciferase complementation assay. As to conditions: chain shown with the change; S2 cells; bar labelled 'F1563A + F1563A'; n=5; parent: 1.0; read off a plot.

The target of test [3] is T2, Drosophila Notch LNR domain H1570A fused to split firefly luciferase fragments, P07207.
T2 chain: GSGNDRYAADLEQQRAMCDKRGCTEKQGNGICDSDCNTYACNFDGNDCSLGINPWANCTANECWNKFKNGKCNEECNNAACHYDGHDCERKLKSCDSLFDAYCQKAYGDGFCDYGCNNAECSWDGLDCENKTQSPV
In words: split-luciferase complementation assay. As to conditions: chain shown with the change; S2 cells; bar labelled 'H1570A + H1570A'; n=5; parent: 1.0; read off a plot.

In the case of “luciferase-tagged Drosophila Notch LNR domain (residues G1465 to V1600) mutant F1563A [Drosophila melanogaster] / EGFP-tagged full-length Drosophila Notch [Drosophila melanogaster] chain 1 F99A”, the ratio to parent in test [1] (LNR-Luc F1563A) is 1.1.

Regarding “luciferase-tagged Drosophila Notch LNR domain (residues G1465 to V1600) mutant H1570A [Drosophila melanogaster] / EGFP-tagged full-length Drosophila Notch [Drosophila melanogaster] chain 1 H106A”, the ratio to parent in test [1] (LNR-Luc H1570A) is 0.97.

B1: Drosophila Notch LNR domain fused to split firefly luciferase fragments (LNR–NLuc and LNR–CLuc), P07207 F1563A (N-Luc copy); F1563A (C-Luc copy) (protein)
chain: GSGNDRYAADLEQQRAMCDKRGCTEKQGNGICDSDCNTYACNFDGNDCSLGINPWANCTANECWNKFKNGKCNEECNNAACHYDGHDCERKLKSCDSLADAYCQKHYGDGFCDYGCNNAECSWDGLDCENKTQSPV
As for B1, the ratio to parent in test [2] was determined as 0.96.

B2: Drosophila Notch LNR domain fused to split firefly luciferase fragments (LNR–NLuc and LNR–CLuc), P07207 H1570A (N-Luc copy); H1570A (C-Luc copy) (protein)
chain: GSGNDRYAADLEQQRAMCDKRGCTEKQGNGICDSDCNTYACNFDGNDCSLGINPWANCTANECWNKFKNGKCNEECNNAACHYDGHDCERKLKSCDSLFDAYCQKAYGDGFCDYGCNNAECSWDGLDCENKTQSPV
B2: the ratio to parent in test [3] turned out to be 0.87.
